Results from publication PMC5079630.
pKd: −log10 of the molar value.

Key:
STAT1 N domain [1] = biological target: STAT1 N domain (UniProt P42224); test: AUC; sedimentation equilibrium; STAT1 N domain and mEGFP-tagged STAT2 N domain at final equimolar concentrations of 2.5, 10 and 40 uM; heterodimer to monomers
[2] = test system: STAT1 (Tyr701-phosphorylated; GAF) (human (U6A cells)); test: EMSA; conditions: Combined cytoplasmic and nuclear extracts of U6A cells (IFN-beta 500 U/ml or IFN-gamma 50 U/ml, 1 h), normalized for pY701-STAT1; 10 nM dsDNA probe; buffer …
importin-α5 = importin-α5 (UniProt P52294); test: anti-FLAG co-immunoprecipitation, immunoblot; conditions: reference: STAT1-YFP wild type; sites Y701
STAT2 N domain (human) = STAT2 N domain (human) (UniProt P52630); test: AUC; sedimentation equilibrium of one N domain alone; homodimer to monomers; concentrations not given
STAT1 N domain [3] = biological target: STAT1 N domain (UniProt P42224); test: as above

STAT1 N domain, sequence (P42224 whole entry): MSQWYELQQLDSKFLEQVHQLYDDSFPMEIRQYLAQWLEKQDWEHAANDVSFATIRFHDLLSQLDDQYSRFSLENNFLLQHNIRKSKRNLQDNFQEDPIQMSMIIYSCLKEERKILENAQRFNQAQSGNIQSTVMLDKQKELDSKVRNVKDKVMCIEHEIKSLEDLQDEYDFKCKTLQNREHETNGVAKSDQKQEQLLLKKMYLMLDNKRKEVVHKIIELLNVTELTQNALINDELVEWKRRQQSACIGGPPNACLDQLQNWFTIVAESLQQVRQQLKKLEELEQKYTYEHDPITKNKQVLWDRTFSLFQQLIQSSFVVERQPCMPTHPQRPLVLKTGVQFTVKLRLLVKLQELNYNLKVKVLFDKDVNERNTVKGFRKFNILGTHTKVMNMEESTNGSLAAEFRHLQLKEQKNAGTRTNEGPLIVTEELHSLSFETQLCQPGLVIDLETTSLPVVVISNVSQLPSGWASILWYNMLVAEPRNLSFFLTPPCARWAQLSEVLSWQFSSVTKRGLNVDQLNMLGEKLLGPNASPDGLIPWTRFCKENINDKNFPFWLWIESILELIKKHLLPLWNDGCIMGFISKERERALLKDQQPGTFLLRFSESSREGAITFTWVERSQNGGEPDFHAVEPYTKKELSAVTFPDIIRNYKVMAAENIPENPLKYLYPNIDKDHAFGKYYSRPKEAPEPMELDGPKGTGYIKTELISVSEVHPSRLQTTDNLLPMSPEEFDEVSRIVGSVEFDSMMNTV

STAT2 N domain LL81,82AA (from UniProt P52630 1-851) (domain or fragment)
pKd (STAT1 N domain [1]): 2.26

GAS (M67) probe
binding signal (% of GAF activity without STAT2) [2]: 25

STAT1 (from UniProt P42224) STAT1-YFP Y701F
binding against the reference (importin-α5): lost

STAT2 N domain (from UniProt P52630 1-851) (domain or fragment)
pKd (STAT2 N domain (human)): 3.15
pKd (STAT1 N domain [1]): 8.00

STAT1 N domain (from UniProt P42224 1-750) (domain or fragment)
pKd (STAT1 N domain [3]): 4.78
